Data on one molecule can be found in article PMC5906480, “Tau Antibody Structure Reveals a Molecular Switch Defining a Pathological Conformation of the Tau Protein” (Scientific Reports, 2018).

Assay [1] relates to FITC-conjugated non-phosphorylated tau peptide. Description: Fluorescence polarization direct binding, non-phosphorylated peptide. The following applies: Fab C5.2 675 nM to 0.08 nM; FITC-peptide 300 nM; 25 °C; fluorescence dip around 10 nM Fab due to protein aggregation and fluorophore quenching. The procedure: (§1) FITC-labeled peptides used in fluorescence polarization experiments were synthesized by Biomatik (Cambridge, ON, Canada). Fab C5.2 affinity was determined using a fluorescence polarization-based direct binding assay with fluorescein isothiocyanate (FITC)-conjugated peptides (Table 1). The FITC-peptide concentration was kept constant at 300 nM while Fab C5.2 was serially diluted from 675 nM to 0.08 nM. Data was collected at 25 °C using excitation and emission wavelengths of 485 nm and 535 nm, respectively. Each experiment was done in a single 96-well plate and calculated in triplicate (buffer: 50 mM Tris, 100 mM NaCl, 0.1% pluronic F-127). The experiments were performed with a DTX 880 Multimode Detector (Beckman Coulter, Jersey City, NJ). Fluorescence data was reduced using multimode detection software and KD values were calculated in GraphPad Prism 7.0 using a nonlinear regression model.
(§2) To accurately measure the C5.2 binding affinity, we performed fluorescence polarization experiments to determine dissociation constants (KD), using the Fab C5.2 and four differentially phosphorylated FITC-conjugated peptides (Table 1). The peptide concentration was kept constant while that of Fab C5.2 was serially diluted from 675 nM to 0.08 nM (Fig. 1d). […] In comparison with a […] IgG molecule, each Fab fragment contains a single binding site so the KD was calculated using a nonlinear model.
In general terms: Fluorescence polarisation rises when a labelled molecule tumbles more slowly, as on binding a larger partner.

Assay [2] concerns the target FITC-conjugated tau peptide pS396/pS404. Nature of the assay: Fluorescence polarization direct binding, pS396/pS404 peptide. The following applies: Fab C5.2 675 nM to 0.08 nM; FITC-peptide 300 nM; 25 °C; 50 mM Tris, 100 mM NaCl, 0.1% pluronic F-127; ex 485/em 535 nm; triplicate; nonlinear regression. The procedure:
as §1, §2

Assay [3] deals with FITC-conjugated tau peptide pS396. Nature of the assay: Fluorescence polarization direct binding, pS396 peptide. The following applies: Fab C5.2 675 nM to 0.08 nM; FITC-peptide 300 nM; 25 °C; 50 mM Tris, 100 mM NaCl, 0.1% pluronic F-127; ex 485/em 535 nm; triplicate; nonlinear regression. The procedure: as §1, §2
The test system of assay [4] is FITC-conjugated tau peptide pS404. Nature of the assay: Fluorescence polarization direct binding, pS404 peptide. The following applies: Fab C5.2 675 nM to 0.08 nM; FITC-peptide 300 nM; 25 °C; fluorescence dip around 10 nM Fab due to protein aggregation and fluorophore quenching. The procedure:
as §1, §2

B1: Fab C5.2: Fab fragment of C5.2 prepared by papain digestion (antibody, V domains shown)
VH: QVQLQQSDAELVKPGASVKISCKASGYTFTDRTIHWVKQRPEQGLEWIGYIYPGDDSTKYNDMFKAKATLTADKSSNTAYMQLNSLTSDDSAVYFCARRGTMDYWGQGTSVTVSS
VL: DVQMIQSPSSLSASLGDIVTMTCQASQDTSINLNWFQQKPGKAPKLLIYGASNLEDGVPSRFSGSRYGTDFTLTISSLEDEDMATYFCLQHTYLPFTFGSGTKLEIK
Turning to B1, the “Recognition of the non-phosphorylated peptide” value in assay [1] was “does not recognize”. Further, the Kd – broadly, the concentration at which binding is half-saturated – in assay [2] was found to be 15.4 nM; in assay [3] it was 14.9 nM. In addition, the “Recognition of peptide pS404” value in assay [4] is recorded as “does not recognize”.
